Measurements from patent publication US20150355179A1, “CDKACT BIOSENSORS-FLUORESCENT POLYPEPTIDE TO PROBE THE ACTIVITY OF CDK/CYCLIN KINASES IN VITRO, IN CELLULO AND IN VIVO” (CENTRE NATIONAL DE LA RECHERCHE SCIENTIFIQUE (CNRS), priority 2012, published 2015).

Assays:
[1] = Solubility of the biosensor after removal of the GST tag; assay type: physicochemical
Method: The […]1 biosensor was engineered by cloning residues 367-603 of PBD from Plk1 into the pGex6[…]. […]1 was expressed in E. coli, then purified on High performance glutathione Sepharose in 50 mM TrisHCl, pH 7.4, 150 mM NaCl, then further purified by Gel Filtration chromatography. […] Following purification, […]1 was labelled with a 10fold molar excess Cy3-maleimide and further purified on NAPS columns to remove excess label.

GST-CDK2/Cyclin A = molecular target: T1, GST-CDK2/Cyclin A (Homo sapiens, UniProt P24941); assay: Radioactive endpoint kinase assay with GST-CDK2/Cyclin A; assay type: biochemical; settings: radioactive gamma-ATP, 30 min at 30° C., histone H1 positive control
T1 construct: made in house; host or cells: E. coli
Method: In order to characterize […]1 biosensor in vitro, we first asked whether it could be used to monitor recombinant kinase activity in a real-time assay. […] A kinase assay was performed by addition of GST-CDK2/CIV complexed with His-Cyclin A to […]1, in the presence of 0.5 mM ATP and 5 mM MgCl2, and […]1 fluorescence was monitored over time. Phosphorylation of 5 uM […]1 or histone H1 were performed in 50 mM Tris pH 7.5, 5 mM MgCl2, 0.5 mM ATP, and 33P-gamma-ATP for 30 min at 30° C. The reaction was stopped by addition of Laemmli buffer, and samples were run on SDS-PAGE then exposed by autoradiography.

CDK4/Cyclin D = molecular target: T2, CDK4/Cyclin D (Homo sapiens, UniProt P11802); assay: Real-time fluorescence kinase assay with recombinant CDK4/Cyclin D; assay type: biochemical; settings: dependent on MgCl2/ATP
T2 construct: made in house; host or cells: E. coli
Method: (§1) Fluorescence kinase assays were performed in 96-well plates in a thermostated chamber (Polarstar BMG) at 30° C. in 200 ul phosphate buffer saline, pH 7.2, 150 mM NaCl, in the presence of 5 mM MgCl2, 0.5 mM ATP, except when stated otherwise. The fluorescence of Cy3-labelled CDKACTH1 with recombinant CDK/Cyclin complexes or with cell extracts was monitored over time. Changes in Cy3 fluorescence emission were recorded at 590 nm following excitation at 544 nm. In all experiments, the fluorescence of CDKACTH1-Cy3 alone was substracted from all other values. Data analysis and curve fitting were performed using the GraFit Software (Erathicus Ltd).
(§2) To address the issue of specificity, we asked whether other kinases could phosphorylate and thereby affect the fluorescence of CDKACTH1. We first examined CDK1/Cyclin B and CDK4/Cyclin D (FIGS. 3A and B).

Plk1 = Plk1 (Homo sapiens, UniProt P53350); assay: Real-time fluorescence kinase assay with Plk1 kinase (specificity); assay type: biochemical; settings: 25 nM CDKACTH1, 25, 50, 75 nM Plk1
Method: as §1, §2

CDK2/Cyclin A = molecular target: T3, CDK2/Cyclin A (Homo sapiens, UniProt P24941); assay: Real-time fluorescence kinase assay with recombinant active CDK2/Cyclin A; assay type: biochemical
T3 construct: made in house; host or cells: E. coli
Method: (§3) In order to characterize CDKACT-H1 biosensor in vitro, we first asked whether it could be used to monitor recombinant kinase activity in a real-time assay.
as §1, §3
In vitro characterization was performed as described in Example 2. […] Assays were performed at 30° C. for 1600s. Fluorescence emission of Cy5 was measured at 675 nm following excitation at 645 nm on Polarstar™ fluorimeter.
Assays were performed at 30° C. for 1600s. Fluorescence emission of Cy3 was measured at 590 nm following excitation at 544 nm on Polarstar™ fluorimeter.

CDK1/Cyclin B = molecular target: T4, CDK1/Cyclin B (Homo sapiens, UniProt P06493); assay: Real-time fluorescence kinase assay with recombinant CDK1/Cyclin B; assay type: biochemical
T4 construct: made in house; host or cells: E. coli
Method: as §1, §2

Plk3 = Plk3 (Homo sapiens, UniProt Q9H4B4); assay: Real-time fluorescence kinase assay with Plk3 kinase (specificity); assay type: biochemical; settings: 25 nM CDKACTH1, 25, 50, 75 nM Plk3
Method: as §1, §2

GST-CDK1-Cyclin B = molecular target: T5, GST-CDK1-Cyclin B (Homo sapiens, UniProt P06493); assay: Radioactive endpoint kinase assay with GST-CDK1-Cyclin B; assay type: biochemical; settings: radioactive gamma-ATP, 30 min at 30° C., histone H1 positive control
T5 construct: made in house; host or cells: E. coli
T5 sequence (P06493 whole entry, species assumed): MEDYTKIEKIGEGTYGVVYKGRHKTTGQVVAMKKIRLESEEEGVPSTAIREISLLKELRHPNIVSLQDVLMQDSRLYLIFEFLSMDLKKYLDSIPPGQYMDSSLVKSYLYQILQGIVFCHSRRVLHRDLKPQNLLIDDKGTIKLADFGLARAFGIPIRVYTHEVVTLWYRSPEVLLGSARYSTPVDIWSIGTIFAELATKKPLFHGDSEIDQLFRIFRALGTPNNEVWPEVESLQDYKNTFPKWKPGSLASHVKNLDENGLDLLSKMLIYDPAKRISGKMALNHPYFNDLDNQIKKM
T5 sequence (P14635 whole entry partner, species assumed): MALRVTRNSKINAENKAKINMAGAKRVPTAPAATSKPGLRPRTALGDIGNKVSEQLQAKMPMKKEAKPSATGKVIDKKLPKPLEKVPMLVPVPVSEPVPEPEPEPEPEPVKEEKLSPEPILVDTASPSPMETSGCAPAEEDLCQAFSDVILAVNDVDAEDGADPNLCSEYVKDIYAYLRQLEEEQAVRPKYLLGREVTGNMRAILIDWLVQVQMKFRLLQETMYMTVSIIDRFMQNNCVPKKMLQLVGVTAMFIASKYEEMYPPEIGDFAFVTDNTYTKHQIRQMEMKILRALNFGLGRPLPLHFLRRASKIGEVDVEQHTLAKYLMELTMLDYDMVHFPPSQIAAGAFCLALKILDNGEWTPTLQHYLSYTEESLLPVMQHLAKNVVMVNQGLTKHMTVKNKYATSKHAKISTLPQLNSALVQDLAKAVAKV

T4 sequence (P06493 whole entry, species assumed): as the sequence (P06493 whole entry, species assumed) above
T4 sequence (P14635 whole entry partner, species assumed): as the sequence (P14635 whole entry partner, species assumed) above
T2 sequence (P11802 whole entry, species assumed): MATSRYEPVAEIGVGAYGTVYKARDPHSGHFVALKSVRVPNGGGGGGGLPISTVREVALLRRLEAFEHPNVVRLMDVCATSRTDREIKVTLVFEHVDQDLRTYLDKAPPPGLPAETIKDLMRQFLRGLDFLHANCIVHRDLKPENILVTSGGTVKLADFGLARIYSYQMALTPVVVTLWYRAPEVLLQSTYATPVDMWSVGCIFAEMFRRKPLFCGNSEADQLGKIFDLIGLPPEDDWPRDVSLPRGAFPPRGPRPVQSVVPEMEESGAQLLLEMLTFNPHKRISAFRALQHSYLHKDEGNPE
T2 sequence (P24385 whole entry partner, species assumed): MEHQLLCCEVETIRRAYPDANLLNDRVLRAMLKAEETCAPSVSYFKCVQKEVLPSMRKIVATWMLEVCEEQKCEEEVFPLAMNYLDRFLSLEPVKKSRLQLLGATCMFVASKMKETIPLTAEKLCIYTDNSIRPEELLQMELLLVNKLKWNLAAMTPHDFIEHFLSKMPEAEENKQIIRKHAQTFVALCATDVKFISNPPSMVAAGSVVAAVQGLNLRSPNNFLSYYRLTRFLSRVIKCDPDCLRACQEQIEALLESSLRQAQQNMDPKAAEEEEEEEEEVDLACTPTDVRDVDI
Chain of Plk1 (P53350 whole entry): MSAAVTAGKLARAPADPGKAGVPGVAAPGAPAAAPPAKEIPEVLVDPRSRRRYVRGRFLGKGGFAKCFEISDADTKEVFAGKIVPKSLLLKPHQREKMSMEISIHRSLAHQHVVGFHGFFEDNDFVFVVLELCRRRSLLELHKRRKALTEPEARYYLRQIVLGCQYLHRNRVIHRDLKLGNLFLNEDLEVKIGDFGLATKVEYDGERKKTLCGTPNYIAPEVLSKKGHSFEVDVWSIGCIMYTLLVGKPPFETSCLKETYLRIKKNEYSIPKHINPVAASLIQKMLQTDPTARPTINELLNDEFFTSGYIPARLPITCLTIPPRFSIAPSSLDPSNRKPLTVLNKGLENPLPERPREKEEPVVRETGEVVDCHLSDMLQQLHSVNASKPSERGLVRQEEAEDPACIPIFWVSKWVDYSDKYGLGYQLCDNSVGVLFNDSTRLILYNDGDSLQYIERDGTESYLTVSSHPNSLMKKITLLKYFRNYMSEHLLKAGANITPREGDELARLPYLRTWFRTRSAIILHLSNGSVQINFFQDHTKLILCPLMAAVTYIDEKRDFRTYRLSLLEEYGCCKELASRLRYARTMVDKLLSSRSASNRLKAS
Chain of Plk3 (Q9H4B4 whole entry, species assumed): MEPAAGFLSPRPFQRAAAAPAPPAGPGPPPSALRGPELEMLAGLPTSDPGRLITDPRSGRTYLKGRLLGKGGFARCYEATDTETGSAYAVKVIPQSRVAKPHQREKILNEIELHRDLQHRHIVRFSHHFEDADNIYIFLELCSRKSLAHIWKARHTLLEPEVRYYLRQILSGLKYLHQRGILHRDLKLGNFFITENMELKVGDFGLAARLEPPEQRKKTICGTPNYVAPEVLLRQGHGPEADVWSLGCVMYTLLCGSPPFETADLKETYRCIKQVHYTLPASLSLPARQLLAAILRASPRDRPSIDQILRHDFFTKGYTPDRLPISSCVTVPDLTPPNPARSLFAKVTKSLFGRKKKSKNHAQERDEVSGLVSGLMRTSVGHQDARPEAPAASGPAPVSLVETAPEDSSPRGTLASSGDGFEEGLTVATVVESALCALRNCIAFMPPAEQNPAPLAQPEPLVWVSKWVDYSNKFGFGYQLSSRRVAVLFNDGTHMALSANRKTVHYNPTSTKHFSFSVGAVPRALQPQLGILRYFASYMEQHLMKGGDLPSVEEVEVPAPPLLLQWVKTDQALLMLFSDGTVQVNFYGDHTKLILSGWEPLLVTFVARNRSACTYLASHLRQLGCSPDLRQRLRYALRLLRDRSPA

Molecule | solubility upon removal of the GST tag [1] | phosphorylation of the biosensor in standard radioactive kinase assay (GST-CDK2/Cyclin A) | change in CDKACTH1 fluorescence induced by the kinase (CDK4/Cyclin D) | change in CDKACTH1 fluorescence induced by the kinase (Plk1) | sensor concentration giving the best response (CDK2/Cyclin A; for 25-50 nM CDK2/CyclinA) | phosphorylation of the biosensor by the kinase (fluorescence assay) (CDK1/Cyclin B) | sensor concentration giving the optimal response (CDK1/Cyclin B; for 50-100 nM CDK1/Cyclin B) | change in CDKACTH1 fluorescence induced by the kinase (Plk3) | phosphorylation of the biosensor in standard radioactive kinase assay (GST-CDK1-Cyclin B) | competition assay: effect on phosphorylation of CDKACTH1 (CDK2/Cyclin A; 25 nM CDKACTH1-Cy3, 25 nM CDK2/Cyclin A, 25 or 100 nM unlabelled CDKACTH1, 25 or 500 nM histone)
CDKACTH1 (protein, left off: a dimerising Fc or GST) GEVVDSHLSDMLQQLHSVNASKPSERGLVRQEEAEDPASIPIFWVSKWVDYSDKYGLGYQLSDNSVGVLFNDSTRLILYNDGDSLQYIERDGTESYLTVSSHPNSLMKKITLLKYFRNYMSEHLLKAGANITPREGDELARLPYLRTWFRTRSAIILHLSNGSVQINFFQDHTKLILSPLMAAVTYIDEKRDFRTYRLSLLEEYGSSKELASRLRYARTMVDKLLSSRSASNRLKASPGAGGTGGLPGGGGCSTPKKAKKL | complete precipitation | is phosphorylated | reminiscent of CDK2/Cyclin A | did not induce any significant changes | 25 nM | indeed phosphorylated | 10 nM | did not induce any significant changes | is phosphorylated | 
unlabelled sensor: CDKACTH1 biosensor without fluorescent label, used as competitive substrate (protein, left off: a dimerising Fc or GST) GEVVDSHLSDMLQQLHSVNASKPSERGLVRQEEAEDPASIPIFWVSKWVDYSDKYGLGYQLSDNSVGVLFNDSTRLILYNDGDSLQYIERDGTESYLTVSSHPNSLMKKITLLKYFRNYMSEHLLKAGANITPREGDELARLPYLRTWFRTRSAIILHLSNGSVQINFFQDHTKLILSPLMAAVTYIDEKRDFRTYRLSLLEEYGSSKELASRLRYARTMVDKLLSSRSASNRLKASPGAGGTGGLPGGGGCSTPKKAKKL |  |  |  |  |  |  |  |  |  | prevented full phosphorylation
